Data taken from patent publication US20230212549A1 (3B PHARMACEUTICALS, published 2023).
“And” between values parts separate entries of the source, which are not always exact repeats. Identical values can stand only once. Numbered stars: 1 amine (or outer) side, 2 acyl side, 3 side chain; on linkers, the order of the positions; unused ones are H or OH. Bridge positions count the residues as written; N and C are the ends. Square brackets hold non-standard residues; d marks the D form. Primed or numbered codes have the meaning given here. Side chains are listed from the residue outwards. * marks the point of attachment. Ttds″ = 1,13-diamino-4,7,10-trioxatridecan-succinamic acid spacer, O=C(CCC(=O)[*:2])NCCCOCCOCCOCCCN[*:1]; TBMB(SCH2CH2NH-DOTA) = O=C(O)CN1CCN(CC(=O)O)CCN(CC(=O)NCCSCc2cc(C[*:1])cc(C[*:2])c2)CCN(CC(=O)O)CC1; Ttds = 1,13-diamino-4,7,10-trioxatridecan-succinamic acid, O=C(CCC(=O)[*:2])NCCCOCCOCCOCCCN[*:1]; DOTA = O=C(O)CN1CCN(CC(=O)O)CCN(CC(=O)*)CCN(CC(=O)O)CC1; Biotin = O=C1N[C@H]2[C@H](CS[C@H]2CCCCC(=O)*)N1; Bip = N[C@@H](Cc1ccc(-c2ccccc2)cc1)C(=O)O; Met(O2) = CS(=O)(=O)CC[C@H](N)C(=O)O; mXylylene = c1cc(C[*:1])cc(C[*:2])c1; Pentanesulfonyl = CCCCCS(=O)(=O)*; NMeE = CN[C@@H](CCC(=O)O)C(=O)O; 3Amb = NCc1cccc(C(=O)O)c1; 4Amb = NCc1ccc(C(=O)O)cc1; DOTA′ = not defined here; Nle = CCCC[C@H](N)C(=O)O; Nphe = O=C(O)CNCc1ccccc1; Apr = not defined here; Hexanoyl = CCCCCC(=O)*; AEEA = NCCOCCOCC(=O)O; Sar = CNCC(=O)O

How the values were obtained:
[1] = molecular target: T1, fibroblast activation protein (FAP) on FAP-expressing human WI-38 fibroblasts (human, UniProt Q12884 1-760); experiment: competitive FACS, WI-38 cells, vs Cy5 tracer m3; A = pIC50 >8.0
T1 construct: also called human FAP

[2] = molecular target: Recombinant human FAP (R&D systems, #3715-SE) (human, UniProt Q12884 26-760); experiment: cell-based or functional assay

pIC50 Category (FACS) [1] [pIC50]	pIC50 Category (Activity) [2]	Binder
> 8	> 8 pIC50	Hexanoyl-C[Sar]PTQFC-OH (linker 1-7 via TBMB(SCH2CH2NH-DOTA); SMILES CCCCCC(=O)N[C@H]1CSCc2cc(CSCCNC(=O)CN3CCN(CC(=O)O)CCN(CC(=O)O)CCN(CC(=O)O)CC3)cc(c2)CSC[C@@H](C(=O)O)NC(=O)[C@H](Cc2ccccc2)NC(=O)[C@H](CCC(N)=O)NC(=O)[C@H]([C@@H](C)O)NC(=O)[C@@H]2CCCN2C(=O)CN(C)C1=O, also called 3BP-3678) [Hex-[Cys(tMeBn(DOTA-AET))-Nmg-Pro-Thr-Gln-Phe-Cys]-OH]
	≤ 6 pIC50	Hexanoyl-CPPAEFC-NH2 (linker 1-7 via mXylylene; SMILES CCCCCC(=O)N[C@H]1CSCc2cccc(c2)CSC[C@@H](C(N)=O)NC(=O)[C@H](Cc2ccccc2)NC(=O)[C@H](CCC(=O)O)NC(=O)[C@H](C)NC(=O)[C@@H]2CCCN2C(=O)[C@@H]2CCCN2C1=O) [Hex-[Cys(3MeBn)-Pro-Pro-Ala-Glu-Phe-Cys]-NH2]
	≤ 6 pIC50	Hexanoyl-CPPTAFC-NH2 (linker 1-7 via mXylylene; SMILES CCCCCC(=O)N[C@H]1CSCc2cccc(c2)CSC[C@@H](C(N)=O)NC(=O)[C@H](Cc2ccccc2)NC(=O)[C@H](C)NC(=O)[C@H]([C@@H](C)O)NC(=O)[C@@H]2CCCN2C(=O)[C@@H]2CCCN2C1=O) [Hex-[Cys(3MeBn)-Pro-Pro-Thr-Ala-Phe-Cys]-NH2]
	6.1 pIC50 and 7 pIC50	Hexanoyl-CAPTEFC-NH2 (linker 1-7 via mXylylene; SMILES CCCCCC(=O)N[C@H]1CSCc2cccc(c2)CSC[C@@H](C(N)=O)NC(=O)[C@H](Cc2ccccc2)NC(=O)[C@H](CCC(=O)O)NC(=O)[C@H]([C@@H](C)O)NC(=O)[C@@H]2CCCN2C(=O)[C@H](C)NC1=O) [Hex-[Cys(3MeBn)-Ala-Pro-Thr-Glu-Phe-Cys]-NH2]
	6.1 pIC50 and 7 pIC50	Hexanoyl-CPPTEAC-NH2 (linker 1-7 via mXylylene; SMILES CCCCCC(=O)N[C@H]1CSCc2cccc(c2)CSC[C@@H](C(N)=O)NC(=O)[C@H](C)NC(=O)[C@H](CCC(=O)O)NC(=O)[C@H]([C@@H](C)O)NC(=O)[C@@H]2CCCN2C(=O)[C@@H]2CCCN2C1=O) [Hex-[Cys(3MeBn)-Pro-Pro-Thr-Glu-Ala-Cys]-NH2]
> 8	> 8 pIC50	Hexanoyl-CPPTEFC-NH2 (linker 1-7 via TBMB(SCH2CH2NH-DOTA); SMILES CCCCCC(=O)N[C@H]1CSCc2cc(CSCCNC(=O)CN3CCN(CC(=O)O)CCN(CC(=O)O)CCN(CC(=O)O)CC3)cc(c2)CSC[C@@H](C(N)=O)NC(=O)[C@H](Cc2ccccc2)NC(=O)[C@H](CCC(=O)O)NC(=O)[C@H]([C@@H](C)O)NC(=O)[C@@H]2CCCN2C(=O)[C@@H]2CCCN2C1=O, also called 3BP-3653) [Hex-[Cys(tMeBn(DOTA-AET))-Pro-Pro-Thr-Glu-Phe-Cys]-NH2]
> 8	7.1 pIC50 and 8 pIC50	Pentanesulfonyl-CPPTEFC-OH (linker 1-7 via TBMB(SCH2CH2NH-DOTA); SMILES CCCCCS(=O)(=O)N[C@H]1CSCc2cc(CSCCNC(=O)CN3CCN(CC(=O)O)CCN(CC(=O)O)CCN(CC(=O)O)CC3)cc(c2)CSC[C@@H](C(=O)O)NC(=O)[C@H](Cc2ccccc2)NC(=O)[C@H](CCC(=O)O)NC(=O)[C@H]([C@@H](C)O)NC(=O)[C@@H]2CCCN2C(=O)[C@@H]2CCCN2C1=O, also called 3BP-3691) [Pentyl-SO2-[Cys(tMeBn(DOTA-AET))-Pro-Pro-Thr-Glu-Phe-Cys]-OH]
> 8	> 8 pIC50	{DOTA}-[Ttds][Nle]CPPTEFCD[4Amb]R-NH2 (linker 3-9 via mXylylene; SMILES CCCC[C@H](NC(=O)CCC(=O)NCCCOCCOCCOCCCNC(=O)CN1CCN(CC(=O)O)CCN(CC(=O)O)CCN(CC(=O)O)CC1)C(=O)N[C@H]1CSCc2cccc(c2)CSC[C@@H](C(=O)N[C@@H](CC(=O)O)C(=O)NCc2ccc(C(=O)N[C@@H](CCCNC(=N)N)C(N)=O)cc2)NC(=O)[C@H](Cc2ccccc2)NC(=O)[C@H](CCC(=O)O)NC(=O)[C@H]([C@@H](C)O)NC(=O)[C@@H]2CCCN2C(=O)[C@@H]2CCCN2C1=O, also called 3BP-3321) [DOTA-Ttds-Nle-[Cys(3MeBn)-Pro-Pro-Thr-Glu-Phe-Cys]-Asp-Pamb-Arg-NH2]
	≤ 6 pIC50	Hexanoyl-CPPTE[Nphe]C-NH2 (linker 1-7 via mXylylene; SMILES CCCCCC(=O)N[C@H]1CSCc2cccc(c2)CSC[C@@H](C(N)=O)NC(=O)CN(Cc2ccccc2)C(=O)[C@H](CCC(=O)O)NC(=O)[C@H]([C@@H](C)O)NC(=O)[C@@H]2CCCN2C(=O)[C@@H]2CCCN2C1=O) [Hex-[Cys(3MeBn)-Pro-Pro-Thr-Glu-Nphe-Cys]-NH2]
	≤ 6 pIC50	Hexanoyl-CPPTE([Apr-DOTA′])FCD-NH2 (linker 1-7 via mXylylene; reading uncertain; also: printed as Hex-[Cys(3MeBn)-Pro-Pro-Thr-Glu(NH-Apr-DOTA′)-Phe-Cys]-Asp-NH2) [Hex-[Cys(3MeBn)-Pro-Pro-Thr-Glu(NH-Apr-DOTA′)-Phe-Cys]-Asp-NH2]
> 8	> 8 pIC50	CPPTQFX (not fully specified; N-term Hex; X7 = AET (2-aminoethanethiol, no carboxyl group); Cys1/AET7 thioether-bridged by tMeBn carrying DOTA-AET, also called 3BP-3654) [Hex-[Cys(tMeBn(DOTA-AET))-Pro-Pro-Thr-Gln-Phe-AET]]
	6.1 pIC50 and 7 pIC50	Hexanoyl-CPPTE([Apr-AEEA-DOTA′])FCD-NH2 (linker 1-7 via mXylylene; reading uncertain; also: printed as Hex-[Cys(3MeBn)-Pro-Pro-Thr-Glu(NH-Apr-O2Oc-DOTA′)-Phe-Cys]-Asp-NH2) [Hex-[Cys(3MeBn)-Pro-Pro-Thr-Glu(NH-Apr-O2Oc-DOTA′)-Phe-Cys]-Asp-NH2]
	> 8 pIC50	Hexanoyl-CPPTEFCD-NH2 (linker 1-7 via mXylylene; SMILES CCCCCC(=O)N[C@H]1CSCc2cccc(c2)CSC[C@@H](C(=O)N[C@@H](CC(=O)O)C(N)=O)NC(=O)[C@H](Cc2ccccc2)NC(=O)[C@H](CCC(=O)O)NC(=O)[C@H]([C@@H](C)O)NC(=O)[C@@H]2CCCN2C(=O)[C@@H]2CCCN2C1=O) [Hex-[Cys(3MeBn)-Pro-Pro-Thr-Glu-Phe-Cys]-Asp-NH2]
> 8	> 8 pIC50	{DOTA}-[Ttds][Nle]CPPTQFCD-NH2 (linker 3-9 via mXylylene; SMILES CCCC[C@H](NC(=O)CCC(=O)NCCCOCCOCCOCCCNC(=O)CN1CCN(CC(=O)O)CCN(CC(=O)O)CCN(CC(=O)O)CC1)C(=O)N[C@H]1CSCc2cccc(c2)CSC[C@@H](C(=O)N[C@@H](CC(=O)O)C(N)=O)NC(=O)[C@H](Cc2ccccc2)NC(=O)[C@H](CCC(N)=O)NC(=O)[C@H]([C@@H](C)O)NC(=O)[C@@H]2CCCN2C(=O)[C@@H]2CCCN2C1=O, also called 3BP-3401) [DOTA-Ttds-Nle-[Cys(3MeBn)-Pro-Pro-Thr-Gln-Phe-Cys]-Asp-NH2]
	≤ 6 pIC50	Hexanoyl-CPPTE[Bip]C-NH2 (linker 1-7 via mXylylene; SMILES CCCCCC(=O)N[C@H]1CSCc2cccc(c2)CSC[C@@H](C(N)=O)NC(=O)[C@H](Cc2ccc(-c3ccccc3)cc2)NC(=O)[C@H](CCC(=O)O)NC(=O)[C@H]([C@@H](C)O)NC(=O)[C@@H]2CCCN2C(=O)[C@@H]2CCCN2C1=O) [Hex-[Cys(3MeBn)-Pro-Pro-Thr-Glu-Bip-Cys]-NH2]
	≤ 6 pIC50	Hexanoyl-CPPT[Met(O2)]FC-NH2 (linker 1-7 via mXylylene; SMILES CCCCCC(=O)N[C@H]1CSCc2cccc(c2)CSC[C@@H](C(N)=O)NC(=O)[C@H](Cc2ccccc2)NC(=O)[C@H](CCS(C)(=O)=O)NC(=O)[C@H]([C@@H](C)O)NC(=O)[C@@H]2CCCN2C(=O)[C@@H]2CCCN2C1=O) [Hex-[Cys(3MeBn)-Pro-Pro-Thr-Moo-Phe-Cys]-NH2]
	≤ 6 pIC50	Hexanoyl-CPPT[NMeE]FC-NH2 (linker 1-7 via mXylylene; SMILES CCCCCC(=O)N[C@H]1CSCc2cccc(c2)CSC[C@@H](C(N)=O)NC(=O)[C@H](Cc2ccccc2)NC(=O)[C@H](CCC(=O)O)N(C)C(=O)[C@H]([C@@H](C)O)NC(=O)[C@@H]2CCCN2C(=O)[C@@H]2CCCN2C1=O) [Hex-[Cys(3MeBn)-Pro-Pro-Thr-Nme-Phe-Cys]-NH2]
> 8	> 8 pIC50	H-MCPPTEFCDHFRD[Ttds″]K(Biotin)-NH2 (linker 2-8 via mXylylene; SMILES CSCC[C@H](N)C(=O)N[C@H]1CSCc2cccc(c2)CSC[C@@H](C(=O)N[C@@H](CC(=O)O)C(=O)N[C@@H](Cc2c[nH]cn2)C(=O)N[C@@H](Cc2ccccc2)C(=O)N[C@@H](CCCNC(=N)N)C(=O)N[C@@H](CC(=O)O)C(=O)NCCCOCCOCCOCCCNC(=O)CCC(=O)N[C@@H](CCCCNC(=O)CCCC[C@@H]2SC[C@@H]3NC(=O)N[C@@H]32)C(N)=O)NC(=O)[C@H](Cc2ccccc2)NC(=O)[C@H](CCC(=O)O)NC(=O)[C@H]([C@@H](C)O)NC(=O)[C@@H]2CCCN2C(=O)[C@@H]2CCCN2C1=O, also called 3BP-2881) [H-Met-[Cys(3MeBn)-Pro-Pro-Thr-Glu-Phe-Cys]-Asp-His-Phe-Arg-Asp-Ttds-Lys(Bio)-NH2]
> 8	> 8 pIC50	Hexanoyl-CPPTQXC-OH (linker 1-7 via TBMB(SCH2CH2NH-DOTA); not fully specified (residue 6); printed as Hex-[Cys(tMeBn(DOTA-AET))-Pro-Pro-Thr-Gln-Mpa-Cys]-OH, also called 3BP-3664) [Hex-[Cys(tMeBn(DOTA-AET))-Pro-Pro-Thr-Gln-Mpa-Cys]-OH]
> 8	> 8 pIC50	Hexanoyl-CPPTEFCD[3Amb]R-NH2 (linker 1-7 via mXylylene; SMILES CCCCCC(=O)N[C@H]1CSCc2cccc(c2)CSC[C@@H](C(=O)N[C@@H](CC(=O)O)C(=O)NCc2cccc(C(=O)N[C@@H](CCCNC(=N)N)C(N)=O)c2)NC(=O)[C@H](Cc2ccccc2)NC(=O)[C@H](CCC(=O)O)NC(=O)[C@H]([C@@H](C)O)NC(=O)[C@@H]2CCCN2C(=O)[C@@H]2CCCN2C1=O, also called 3BP-3324) [Hex-[Cys(3MeBn)-Pro-Pro-Thr-Glu-Phe-Cys]-Asp-Mamb-Arg-NH2]
